Assays:
AncSZ = test: phosphorylation enrichment, bacterial display (enrichment ratio); higher = better substrate or ligand; peptides without Tyr show the background
EPHB1 = EPHB1 (UniProt P54762); test: as above
EPHB2 = EPHB2 (UniProt P29323); test: as above
FGFR1 = FGFR1 (UniProt P11362); test: as above
FGFR3 = FGFR3 (UniProt P22607); test: as above
Fer (mouse) = test: as above
Fes = Fes (UniProt P07332); test: as above
Fyn = Fyn (UniProt P06241); test: as above
Hck = Hck (UniProt P08631); test: as above
Jak2 = Jak2 (UniProt O60674); test: as above
Chain of Jak2 (O60674 whole entry, looked up): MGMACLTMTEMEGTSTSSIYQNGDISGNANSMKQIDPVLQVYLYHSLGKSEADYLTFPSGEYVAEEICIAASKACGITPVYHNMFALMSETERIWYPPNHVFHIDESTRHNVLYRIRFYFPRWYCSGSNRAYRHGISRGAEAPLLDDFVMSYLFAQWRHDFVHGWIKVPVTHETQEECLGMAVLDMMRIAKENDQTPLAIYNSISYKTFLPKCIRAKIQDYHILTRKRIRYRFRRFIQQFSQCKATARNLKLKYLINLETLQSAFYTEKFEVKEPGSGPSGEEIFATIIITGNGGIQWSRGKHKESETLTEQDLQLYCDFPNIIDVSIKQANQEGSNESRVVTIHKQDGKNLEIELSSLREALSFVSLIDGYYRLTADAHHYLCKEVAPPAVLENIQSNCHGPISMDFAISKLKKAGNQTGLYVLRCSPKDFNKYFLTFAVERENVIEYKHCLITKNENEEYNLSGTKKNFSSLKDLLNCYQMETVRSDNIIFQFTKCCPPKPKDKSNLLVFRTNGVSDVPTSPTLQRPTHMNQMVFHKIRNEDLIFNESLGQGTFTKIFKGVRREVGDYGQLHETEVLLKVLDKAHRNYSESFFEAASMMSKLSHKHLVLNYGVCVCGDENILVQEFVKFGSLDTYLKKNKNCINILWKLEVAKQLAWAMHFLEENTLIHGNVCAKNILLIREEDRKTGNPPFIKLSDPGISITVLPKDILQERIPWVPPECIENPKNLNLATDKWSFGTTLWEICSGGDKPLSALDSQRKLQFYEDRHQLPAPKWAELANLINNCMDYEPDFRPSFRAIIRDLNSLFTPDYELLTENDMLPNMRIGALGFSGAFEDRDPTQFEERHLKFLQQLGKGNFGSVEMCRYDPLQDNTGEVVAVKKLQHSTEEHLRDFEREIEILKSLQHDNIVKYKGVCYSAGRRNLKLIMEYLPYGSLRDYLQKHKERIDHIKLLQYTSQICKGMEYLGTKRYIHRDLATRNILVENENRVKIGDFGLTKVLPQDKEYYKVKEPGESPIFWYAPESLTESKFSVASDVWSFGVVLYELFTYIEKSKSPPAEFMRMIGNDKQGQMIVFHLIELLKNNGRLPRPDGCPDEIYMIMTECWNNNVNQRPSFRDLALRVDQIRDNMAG

MERTK = MERTK (UniProt Q12866); test: as above
Chain of MERTK (Q12866 whole entry, looked up): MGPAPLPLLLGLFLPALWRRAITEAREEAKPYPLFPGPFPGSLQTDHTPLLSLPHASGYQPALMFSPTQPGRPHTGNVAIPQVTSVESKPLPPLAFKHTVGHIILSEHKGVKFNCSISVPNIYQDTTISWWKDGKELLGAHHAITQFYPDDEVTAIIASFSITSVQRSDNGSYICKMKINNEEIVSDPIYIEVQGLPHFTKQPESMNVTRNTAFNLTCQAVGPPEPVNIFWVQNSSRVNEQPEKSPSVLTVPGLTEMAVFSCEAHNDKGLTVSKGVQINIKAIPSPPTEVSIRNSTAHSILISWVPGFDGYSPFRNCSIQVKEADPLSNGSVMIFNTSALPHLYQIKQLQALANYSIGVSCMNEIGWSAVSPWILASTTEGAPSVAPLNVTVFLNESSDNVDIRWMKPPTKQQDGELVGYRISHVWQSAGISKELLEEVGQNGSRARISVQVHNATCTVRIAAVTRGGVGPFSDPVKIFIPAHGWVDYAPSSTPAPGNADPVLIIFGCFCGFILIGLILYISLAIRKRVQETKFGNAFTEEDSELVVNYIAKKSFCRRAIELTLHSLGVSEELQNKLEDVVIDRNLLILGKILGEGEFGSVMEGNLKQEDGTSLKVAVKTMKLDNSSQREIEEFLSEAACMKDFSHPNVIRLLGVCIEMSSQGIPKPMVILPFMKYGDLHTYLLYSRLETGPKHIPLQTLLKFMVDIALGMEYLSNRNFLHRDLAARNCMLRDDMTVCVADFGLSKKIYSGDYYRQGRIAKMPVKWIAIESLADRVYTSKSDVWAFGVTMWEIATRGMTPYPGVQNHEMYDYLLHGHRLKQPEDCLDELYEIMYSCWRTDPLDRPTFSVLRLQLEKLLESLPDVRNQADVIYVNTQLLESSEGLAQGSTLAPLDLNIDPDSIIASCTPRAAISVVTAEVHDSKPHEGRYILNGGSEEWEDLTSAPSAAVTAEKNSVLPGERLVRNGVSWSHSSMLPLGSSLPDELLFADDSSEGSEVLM

c-Abl (mouse) = test: as above
c-Src = test: as above
Grb2 SH2 = Grb2 SH2 (UniProt P62993); test: SH2 binding enrichment of the phosphorylated peptide, bacterial display (enrichment ratio); higher = better substrate or ligand; peptides without Tyr show the background
SHP2-C SH2 = test: as above
c-Src SH2 = test: as above
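Wherever SH2 binding enrichment of the phosphorylated peptide, bacterial display is given: peptide library displayed on the E. coli surface as eCPX fusions, selected cells deep-sequenced, score is each peptide's frequency after selection divided by its frequency in the input.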
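Wherever phosphorylation enrichment, bacterial display is given: 11-residue human phosphosite peptides and single-mutation variants displayed on the E. coli surface, counted by deep sequencing, each peptide's frequency after selection divided by its frequency in the unselected input library; frequency after pTyr selection over input frequency; kinase dosed for 20-30% of maximal phosphorylation in three min.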

Chain of Fes (P07332 whole entry, looked up): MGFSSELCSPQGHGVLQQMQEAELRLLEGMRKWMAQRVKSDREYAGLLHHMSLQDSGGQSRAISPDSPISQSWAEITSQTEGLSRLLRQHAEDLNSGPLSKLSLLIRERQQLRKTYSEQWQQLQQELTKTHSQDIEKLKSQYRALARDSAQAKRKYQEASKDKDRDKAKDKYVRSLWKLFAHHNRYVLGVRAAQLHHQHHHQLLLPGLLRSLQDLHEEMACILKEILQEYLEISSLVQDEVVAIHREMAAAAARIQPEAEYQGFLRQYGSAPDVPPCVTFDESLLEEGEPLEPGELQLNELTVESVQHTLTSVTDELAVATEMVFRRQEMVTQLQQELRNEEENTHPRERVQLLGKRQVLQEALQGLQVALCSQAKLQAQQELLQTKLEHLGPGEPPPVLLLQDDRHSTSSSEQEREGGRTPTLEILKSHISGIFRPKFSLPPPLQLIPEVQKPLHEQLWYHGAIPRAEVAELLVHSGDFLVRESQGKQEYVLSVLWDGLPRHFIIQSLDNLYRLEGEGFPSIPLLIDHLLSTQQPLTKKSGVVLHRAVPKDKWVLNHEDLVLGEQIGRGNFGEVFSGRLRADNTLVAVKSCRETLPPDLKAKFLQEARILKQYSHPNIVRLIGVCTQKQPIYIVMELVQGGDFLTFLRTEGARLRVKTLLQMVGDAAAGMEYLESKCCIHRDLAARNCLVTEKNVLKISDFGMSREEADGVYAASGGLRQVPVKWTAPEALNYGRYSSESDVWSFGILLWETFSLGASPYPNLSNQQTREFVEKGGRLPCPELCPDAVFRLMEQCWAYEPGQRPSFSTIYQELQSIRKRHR
Chain of EPHB2 (P29323 whole entry, looked up): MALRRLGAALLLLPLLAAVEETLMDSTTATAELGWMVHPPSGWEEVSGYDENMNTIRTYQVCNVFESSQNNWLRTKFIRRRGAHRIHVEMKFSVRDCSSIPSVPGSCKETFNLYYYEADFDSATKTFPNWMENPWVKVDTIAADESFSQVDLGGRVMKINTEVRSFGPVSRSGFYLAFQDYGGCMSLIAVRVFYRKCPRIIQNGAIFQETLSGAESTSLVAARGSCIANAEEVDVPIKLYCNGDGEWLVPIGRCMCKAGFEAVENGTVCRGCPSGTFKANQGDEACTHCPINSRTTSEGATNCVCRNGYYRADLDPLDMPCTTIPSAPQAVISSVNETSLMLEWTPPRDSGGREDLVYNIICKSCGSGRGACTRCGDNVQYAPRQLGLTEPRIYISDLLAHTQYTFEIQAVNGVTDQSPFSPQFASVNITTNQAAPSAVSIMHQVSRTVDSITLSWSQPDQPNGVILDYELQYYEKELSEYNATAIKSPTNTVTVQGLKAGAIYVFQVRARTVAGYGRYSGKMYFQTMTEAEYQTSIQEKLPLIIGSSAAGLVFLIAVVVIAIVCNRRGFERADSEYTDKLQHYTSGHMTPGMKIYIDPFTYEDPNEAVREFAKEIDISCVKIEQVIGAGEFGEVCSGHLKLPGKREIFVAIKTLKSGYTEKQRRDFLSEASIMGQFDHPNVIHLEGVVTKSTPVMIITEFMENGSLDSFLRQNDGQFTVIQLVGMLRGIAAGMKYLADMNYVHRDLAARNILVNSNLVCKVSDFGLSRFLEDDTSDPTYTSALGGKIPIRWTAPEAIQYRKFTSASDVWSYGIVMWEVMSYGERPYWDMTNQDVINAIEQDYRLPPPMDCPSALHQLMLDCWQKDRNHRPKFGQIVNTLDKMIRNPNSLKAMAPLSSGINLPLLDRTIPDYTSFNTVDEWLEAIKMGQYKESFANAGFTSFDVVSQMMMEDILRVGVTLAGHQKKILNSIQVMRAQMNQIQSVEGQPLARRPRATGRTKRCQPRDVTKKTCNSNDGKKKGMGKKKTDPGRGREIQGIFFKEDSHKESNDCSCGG
Chain of FGFR3 (P22607 whole entry, looked up): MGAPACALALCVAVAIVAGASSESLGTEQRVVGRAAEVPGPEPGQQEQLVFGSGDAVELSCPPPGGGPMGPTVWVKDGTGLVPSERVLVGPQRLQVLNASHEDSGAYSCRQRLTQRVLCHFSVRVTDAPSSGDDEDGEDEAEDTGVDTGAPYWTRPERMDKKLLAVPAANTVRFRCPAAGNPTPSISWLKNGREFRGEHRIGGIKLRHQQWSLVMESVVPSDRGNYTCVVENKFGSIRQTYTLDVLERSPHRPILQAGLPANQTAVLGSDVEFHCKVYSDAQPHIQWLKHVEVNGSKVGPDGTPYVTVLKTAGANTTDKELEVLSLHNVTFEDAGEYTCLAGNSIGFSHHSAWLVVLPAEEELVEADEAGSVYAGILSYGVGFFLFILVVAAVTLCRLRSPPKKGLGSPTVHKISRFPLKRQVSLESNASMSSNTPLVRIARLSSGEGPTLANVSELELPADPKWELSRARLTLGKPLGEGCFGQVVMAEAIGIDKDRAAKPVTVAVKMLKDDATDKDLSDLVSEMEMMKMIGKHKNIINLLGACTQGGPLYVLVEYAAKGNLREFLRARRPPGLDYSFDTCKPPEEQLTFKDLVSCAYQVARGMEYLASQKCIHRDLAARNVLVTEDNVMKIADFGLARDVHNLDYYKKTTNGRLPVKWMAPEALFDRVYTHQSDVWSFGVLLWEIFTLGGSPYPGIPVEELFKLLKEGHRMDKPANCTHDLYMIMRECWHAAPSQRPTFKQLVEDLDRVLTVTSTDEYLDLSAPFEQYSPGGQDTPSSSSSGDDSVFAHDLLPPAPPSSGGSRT

| SH2 binding enrichment (Grb2 SH2) | SH2 binding enrichment (SHP2-C SH2) | SH2 binding enrichment (c-Src SH2) | Sequence | phosphorylation enrichment (AncSZ) | phosphorylation enrichment (EPHB1) | phosphorylation enrichment (EPHB2) | phosphorylation enrichment (FGFR1) | phosphorylation enrichment (FGFR3) | phosphorylation enrichment (Fer (mouse)) | phosphorylation enrichment (Fes) | phosphorylation enrichment (Fyn) | phosphorylation enrichment (Hck) | phosphorylation enrichment (Jak2) | phosphorylation enrichment (MERTK) | phosphorylation enrichment (c-Abl (mouse)) | phosphorylation enrichment (c-Src) |
| --- | --- | --- | --- | --- | --- | --- | --- | --- | --- | --- | --- | --- | --- | --- | --- | --- |
| 5.57 | 1.35 | 2.29 | VNNLVYENING [FRS2_Y306_K303N] | 1.17 | 11.8 | 4.94 | 0.57 | 0.576 | 11.8 | 2.21 | 6.01 | 7.03 | 0.571 | 5.31 | 0.703 | 5.42 |
| 0.887 | 1.55 | 2.33 | VPHECYAKVFD [ALB_Y394_D389V] | 1.07 | 0.647 | 0.716 | 0.619 | 0.727 | 0.542 | 1.22 | 0.564 | 0.572 | 0.928 | 0.497 | 0.945 | 0.561 |
| 0.668 | 0.55 | 0.534 | VPLATYMRIYK [RPL21_Y30] | 0.887 | 0.511 | 0.492 | 0.526 | 0.687 | 0.517 | 0.958 | 0.454 | 0.477 | 1.01 | 0.412 | 0.591 | 0.429 |
| 0.81 | 0.581 | 0.56 | VPVPGYTKVPE [SPRR3_Y146_L149V] | 0.776 | 0.365 | 0.541 | 0.437 | 0.789 | 0.525 | 0.75 | 0.494 | 0.526 | 0.769 | 0.501 | 0.615 | 0.398 |
| 0.689 | 0.889 | 0.447 | VQNIVYRTASI [CYP39A1_Y102] | 0.706 | 0.335 | 0.396 | 0.414 | 0.442 | 0.34 | 0.619 | 0.382 | 0.36 | 0.581 | 0.334 | 0.467 | 0.356 |
| 0.816 | 0.814 | 0.721 | VQVAFYTMMMN [SPATA17_Y84_YF] | 1.63 | 1.3 | 1.15 | 1.84 | 1.99 | 1.81 | 1.51 | 0.652 | 0.769 | 1.6 | 3.02 | 1.03 | 0.956 |
| 0.963 | 0.591 | 0.477 | VREIRCQGGNR [VWF_Y1570_Y1570C] | 0.648 | 0.416 | 0.432 | 0.478 | 0.419 | 0.296 | 0.682 | 0.401 | 0.465 | 0.771 | 0.406 | 0.675 | 0.5 |
| 0.676 | 0.542 | 0.403 | VRFMADTDETF [F8_Y450_Y450D] | 1.21 | 0.63 | 0.644 | 0.505 | 0.755 | 0.628 | 1.3 | 0.54 | 0.59 | 1.07 | 0.451 | 0.856 | 0.471 |
| 0.665 | 0.714 | 0.364 | VRHRRYKHTHE [CTCF_Y343] | 0.759 | 0.55 | 0.622 | 0.743 | 0.603 | 0.584 | 0.654 | 0.613 | 0.631 | 0.643 | 0.684 | 0.816 | 0.788 |
| 0.932 | 0.76 | 0.572 | VRLTEYPCAGL | 0.638 | 0.456 | 0.457 | 0.396 | 0.523 | 0.381 | 0.781 | 0.358 | 0.428 | 0.673 | 0.367 | 0.527 | 0.398 |
| 1.03 | 1.08 | 0.615 | VRSTEYPCAGL | 0.586 | 0.554 | 0.483 | 0.447 | 0.497 | 0.292 | 0.798 | 0.397 | 0.338 | 0.713 | 0.362 | 0.611 | 0.471 |
| 0.751 | 0.646 | 0.617 | VSGIPYSQPKQ [NEU1_Y251_G252S] | 0.467 | 0.234 | 0.4 | 0.389 | 0.443 | 0.467 | 0.474 | 0.398 | 0.358 | 0.943 | 0.326 | 0.416 | 0.388 |
| 1.13 | 0.93 | 0.556 | VSSPKYGSDDE [TMCC2_Y473] | 0.968 | 0.559 | 0.505 | 0.46 | 0.713 | 0.553 | 1.01 | 0.556 | 0.429 | 0.926 | 0.464 | 0.992 | 0.619 |
| 1.05 | 1.01 | 1.06 | VTRLRYPVCFG [ITK_Y336] | 0.815 | 0.528 | 0.543 | 0.467 | 0.877 | 0.487 | 1.07 | 0.453 | 0.555 | 0.825 | 0.471 | 0.756 | 0.467 |
| 0.713 | 0.516 | 0.353 | VVSLFYGTALF [OR10C1_Y251_M246V] | 1.25 | 0.698 | 0.812 | 0.566 | 0.804 | 1.1 | 1.43 | 1.94 | 1.42 | 1.61 | 0.7 | 1.21 | 1.97 |
| 0.875 | 0.636 | 0.704 | VVTGPYEKPSL [KIR3DS1_Y221_L220P] | 1.04 | 0.55 | 0.513 | 0.581 | 0.491 | 0.665 | 0.746 | 0.473 | 0.503 | 0.69 | 0.45 | 0.966 | 0.472 |
